The series has as its target T1, AP2-LT D1 (Plasmodium falciparum, UniProt Q8IAM1 2520-2577).
T1 sequence: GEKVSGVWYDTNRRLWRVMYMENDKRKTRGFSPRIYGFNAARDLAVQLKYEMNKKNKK
In words: gcPBM; about 25 ug protein; PBS, 1% milk, 0.2 mg/ml BSA, salmon testes DNA, 0.03% Triton X-100. Conditions: tags: N-terminal GST (pGEX-4T-1), kept; label: surface-attached array probe.

B1: CACACA_negctrl_site970 (dsDNA)
DNA 1: ATATTTTTATGTACTTCAAAAAAAAAGAAAAACAAA
DNA 2: TTTGTTTTTCTTTTTTTTTGAAGTACATAAAAATAT
As for B1, the binding signal was 8.64 ln median PBM intensity, better of two orientations.

B2: CACACA_negctrl_site941 (dsDNA)
DNA 1: ATATTACGCACAAAAAAAAAAAAAAAAAAAAAAAAA
DNA 2: TTTTTTTTTTTTTTTTTTTTTTTTTGTGCGTAATAT
On to B2, for which the binding signal is 8.56 ln median PBM intensity, better of two orientations.

B3: CACACA_negctrl_site1416 (dsDNA)
DNA 1: TTTTTTGTACCAAAAAAAAAAAAAAGAAAAAAAAAC
DNA 2: GTTTTTTTTTCTTTTTTTTTTTTTTGGTACAAAAAA
For the molecule B3, the binding signal is 8.68 ln median PBM intensity, better of two orientations.

B4: CACACA_negctrl_site667 (dsDNA)
DNA 1: TTATATATAAACATAAAAAGAAATATATTATGTATA
DNA 2: TATACATAATATATTTCTTTTTATGTTTATATATAA
Take B4: the binding signal was 8.75 ln median PBM intensity, better of two orientations.

B5: CACACA_negctrl_site362 (dsDNA)
DNA 1: TTATTTTTTCTTTTTTTTCTTACCACAAAAATGGAT
DNA 2: ATCCATTTTTGTGGTAAGAAAAAAAAGAAAAAATAA
On to B5, for which the binding signal was 8.71 ln median PBM intensity, better of two orientations.

B6: CACACA_negctrl_site918 (dsDNA)
DNA 1: TTTTTTTTTTCTTTTTTTCTCATGAAATTCTAAATG
DNA 2: CATTTAGAATTTCATGAGAAAAAAAGAAAAAAAAAA
On to B6, for which the binding signal was 8.68 ln median PBM intensity, better of two orientations.

B7: CACACA_negctrl_site332 (dsDNA)
DNA 1: TCTTTTAAAAATATAAAAAGGAATATATAAAAATGT
DNA 2: ACATTTTTATATATTCCTTTTTATATTTTTAAAAGA
Consider B7, for which the binding signal is 8.73 ln median PBM intensity, better of two orientations.

B8: CACACA_negctrl_site1769 (dsDNA)
DNA 1: TTTTTACGTAAACAAAATAATTATATAATATTATTT
DNA 2: AAATAATATTATATAATTATTTTGTTTACGTAAAAA
Regarding B8, the binding signal is 8.71 ln median PBM intensity, better of two orientations.

B9: CACACA_negctrl_site1666 (dsDNA)
DNA 1: AAAAAAAAAAAAAAATTAAAGTAATGGAAAAAAAAA
DNA 2: TTTTTTTTTCCATTACTTTAATTTTTTTTTTTTTTT
Consider B9, for which the binding signal is 8.75 ln median PBM intensity, better of two orientations.

B10: CACACA_negctrl_site1724 (dsDNA)
DNA 1: TTTTTCTTTTTTTTTTTAATAATATATAACAAATTT
DNA 2: AAATTTGTTATATATTATTAAAAAAAAAAAGAAAAA
B10: the binding signal was 8.68 ln median PBM intensity, better of two orientations.

B11: CACACA_negctrl_site283 (dsDNA)
DNA 1: ACATTCTGATGGTGATTATTAATTATTACAAAAATT
DNA 2: AATTTTTGTAATAATTAATAATCACCATCAGAATGT
As for B11, the binding signal is 8.72 ln median PBM intensity, better of two orientations.

B12: CACACA_negctrl_site1347 (dsDNA)
DNA 1: ATTTTTTTTTTTTTTTTTTTTTTTTTTTAATCTGGA
DNA 2: TCCAGATTAAAAAAAAAAAAAAAAAAAAAAAAAAAT
As to B12, the binding signal is 8.7 ln median PBM intensity, better of two orientations.

B13: CACACA_negctrl_site1036 (dsDNA)
DNA 1: ATATTGTATTATCTTTATGTACCAAAAAAAAAAAAA
DNA 2: TTTTTTTTTTTTTGGTACATAAAGATAATACAATAT
On to B13, for which the binding signal is 8.63 ln median PBM intensity, better of two orientations.

B14: CACACA_negctrl_site731 (dsDNA)
DNA 1: TCTAAACAAATTAATAAAATAAGTATTCAAAATTAT
DNA 2: ATAATTTTGAATACTTATTTTATTAATTTGTTTAGA
Consider B14, for which the binding signal is 8.64 ln median PBM intensity, better of two orientations.

B15: CACACA_negctrl_site90 (dsDNA)
DNA 1: TTATAATATATATAAAAGAAAAAAAATTATAATATA
DNA 2: TATATTATAATTTTTTTTCTTTTATATATATTATAA
Consider B15, for which the binding signal was 8.58 ln median PBM intensity, better of two orientations.

B16: CACACA_negctrl_site1335 (dsDNA)
DNA 1: TAAAATTTTAACAAAAAAAAAAAAAAAAAAAGAAAA
DNA 2: TTTTCTTTTTTTTTTTTTTTTTTTGTTAAAATTTTA
In the case of B16, the binding signal is 8.69 ln median PBM intensity, better of two orientations.

B17: CACACA_negctrl_site81 (dsDNA)
DNA 1: TTCTGTATAATATAAAAACAAAAATTAAATTAAAAC
DNA 2: GTTTTAATTTAATTTTTGTTTTTATATTATACAGAA
As for B17, the binding signal is 8.74 ln median PBM intensity, better of two orientations.

B18: CACACA_negctrl_site1344 (dsDNA)
DNA 1: TTATGTATTCATTTTTTTTAAGCACCCCAAAATGAT
DNA 2: ATCATTTTGGGGTGCTTAAAAAAAATGAATACATAA
In the case of B18, the binding signal is 8.67 ln median PBM intensity, better of two orientations.

B19: CACACA_negctrl_site1736 (dsDNA)
DNA 1: ATTGAAAATTATTTACCTTCTTTGAAAGAACAAATG
DNA 2: CATTTGTTCTTTCAAAGAAGGTAAATAATTTTCAAT
In the case of B19, the binding signal is 8.67 ln median PBM intensity, better of two orientations.

B20: CACACA_negctrl_site945 (dsDNA)
DNA 1: ATATAAATAAATTAGTGAAAAAAAAAAAATTTTTTT
DNA 2: AAAAAAATTTTTTTTTTTTCACTAATTTATTTATAT
On to B20, for which the binding signal was 8.67 ln median PBM intensity, better of two orientations.

B21: CACACA_negctrl_site1228 (dsDNA)
DNA 1: ATATTTTGGGGACTTTTTAAAAAAGAAGTATTAAAA
DNA 2: TTTTAATACTTCTTTTTTAAAAAGTCCCCAAAATAT
As for B21, the binding signal is 8.57 ln median PBM intensity, better of two orientations.

B22: CACACA_negctrl_site500 (dsDNA)
DNA 1: TAATTAAAAAATAAAAAAAAAAAAAATTAAAACAAA
DNA 2: TTTGTTTTAATTTTTTTTTTTTTTATTTTTTAATTA
For the molecule B22, the binding signal is 8.72 ln median PBM intensity, better of two orientations.

B23: CACACA_negctrl_site1262 (dsDNA)
DNA 1: ATATAAAGAAATTAATTTTTCAACAATAAAAATATA
DNA 2: TATATTTTTATTGTTGAAAAATTAATTTCTTTATAT
Consider B23, for which the binding signal was 8.61 ln median PBM intensity, better of two orientations.

B24: CACACA_negctrl_site651 (dsDNA)
DNA 1: TTTGGAAAGCGTGATTTTTGACAAACACAAAAAAAA
DNA 2: TTTTTTTTGTGTTTGTCAAAAATCACGCTTTCCAAA
As for B24, the binding signal is 8.66 ln median PBM intensity, better of two orientations.

B25: CACACA_negctrl_site1402 (dsDNA)
DNA 1: TTATTATTCTTAAGGATATAACAAAAAAGAAAAATT
DNA 2: AATTTTTCTTTTTTGTTATATCCTTAAGAATAATAA
For B25, the binding signal was 8.6 ln median PBM intensity, better of two orientations.

B26: CACACA_negctrl_site766 (dsDNA)
DNA 1: TTCTTTCTGTTTTATTTATAATAATTTATGATAAAA
DNA 2: TTTTATCATAAATTATTATAAATAAAACAGAAAGAA
Consider B26, for which the binding signal was 8.74 ln median PBM intensity, better of two orientations.

B27: CACACA_negctrl_site213 (dsDNA)
DNA 1: ATAAATATATGGTTTCATTATATTAAATTCAATTTA
DNA 2: TAAATTGAATTTAATATAATGAAACCATATATTTAT
On to B27, for which the binding signal is 8.57 ln median PBM intensity, better of two orientations.

B28: CACACA_negctrl_site1075 (dsDNA)
DNA 1: AATAAAAAAAAAAAAAAAAAAAAAAAGACACTAAAA
DNA 2: TTTTAGTGTCTTTTTTTTTTTTTTTTTTTTTTTATT
On to B28, for which the binding signal was 8.75 ln median PBM intensity, better of two orientations.

B29: CACACA_negctrl_site801 (dsDNA)
DNA 1: GATTTATATATATAAAATAATTGAATATTTTCTTTT
DNA 2: AAAAGAAAATATTCAATTATTTTATATATATAAATC
Consider B29, for which the binding signal was 8.66 ln median PBM intensity, better of two orientations.

B30: CACACA_negctrl_site87 (dsDNA)
DNA 1: TCTTTCTAAATCTTACAAATTACTAAAATATTTATA
DNA 2: TATAAATATTTTAGTAATTTGTAAGATTTAGAAAGA
With B30, the binding signal was 8.61 ln median PBM intensity, better of two orientations.

B31: CACACA_negctrl_site466 (dsDNA)
DNA 1: ATAAAAGAATTAAATAATCAAAATGATTATTTTATA
DNA 2: TATAAAATAATCATTTTGATTATTTAATTCTTTTAT
On to B31, for which the binding signal is 8.6 ln median PBM intensity, better of two orientations.

B32: CACACA_negctrl_site624 (dsDNA)
DNA 1: TTATAATAAATATTCATATGTTCAAATATATATATA
DNA 2: TATATATATATTTGAACATATGAATATTTATTATAA
Regarding B32, the binding signal is 8.56 ln median PBM intensity, better of two orientations.

B33: CACACA_negctrl_site152 (dsDNA)
DNA 1: TTTTAAATAATTCGTAATTATAATTATGGAAAAAAG
DNA 2: CTTTTTTCCATAATTATAATTACGAATTATTTAAAA
For B33, the binding signal is 8.59 ln median PBM intensity, better of two orientations.

B34: CACACA_negctrl_site575 (dsDNA)
DNA 1: TATTTACAAAAAAAATATAAAAAATATAAAATATAT
DNA 2: ATATATTTTATATTTTTTATATTTTTTTTGTAAATA
Consider B34, for which the binding signal was 8.62 ln median PBM intensity, better of two orientations.

B35: CACACA_negctrl_site80 (dsDNA)
DNA 1: TTTAATAAATAAATAAATAAAATATATTAAAAACCA
DNA 2: TGGTTTTTAATATATTTTATTTATTTATTTATTAAA
Turning to B35, the binding signal was 8.65 ln median PBM intensity, better of two orientations.

B36: CACACA_negctrl_site154 (dsDNA)
DNA 1: TTTTAAAAAATATAATATAATATAATATAAAATAAA
DNA 2: TTTATTTTATATTATATTATATTATATTTTTTAAAA
On to B36, for which the binding signal was 8.59 ln median PBM intensity, better of two orientations.

B37: CACACA_negctrl_site1813 (dsDNA)
DNA 1: TTTTTATTCGATGATCAAATAGGTATATACAAAAAA
DNA 2: TTTTTTGTATATACCTATTTGATCATCGAATAAAAA
On to B37, for which the binding signal is 8.69 ln median PBM intensity, better of two orientations.

B38: CACACA_negctrl_site153 (dsDNA)
DNA 1: CTTGGTAGTTTTTTCTTATAATCTAATTATTAATAA
DNA 2: TTATTAATAATTAGATTATAAGAAAAAACTACCAAG
With B38, the binding signal is 8.73 ln median PBM intensity, better of two orientations.

B39: CACACA_negctrl_site648 (dsDNA)
DNA 1: AAAAAGAAAAAATATATTCGTCTATTATAAACAATA
DNA 2: TATTGTTTATAATAGACGAATATATTTTTTCTTTTT
As for B39, the binding signal was 8.72 ln median PBM intensity, better of two orientations.

B40: CACACA_negctrl_site454 (dsDNA)
DNA 1: TATTGTAATATTATATATATCTATTATGTATATAAA
DNA 2: TTTATATACATAATAGATATATATAATATTACAATA
Regarding B40, the binding signal was 8.69 ln median PBM intensity, better of two orientations.

B41: CACACA_negctrl_site427 (dsDNA)
DNA 1: TTTATAAATTCTCTTTTTAAAAAATATTTTTATACT
DNA 2: AGTATAAAAATATTTTTTAAAAAGAGAATTTATAAA
Regarding B41, the binding signal is 8.65 ln median PBM intensity, better of two orientations.

The values above are taken from paper PMC11417369, “DNA sequence and chromatin differentiate sequence-specific transcription factor binding in the human malaria parasite Plasmodium falciparum”.
